Two molecules from paper doi:10.1101/2023.09.15.558033 can be followed below.

Experiment [1] deals with Hsp60 C-terminal deletion mutant Δ522 (terminal 26 residues removed) (human). The experiment in a line: cryo-EM structure.
The target of experiment [2] is Hsp60 C-terminal deletion mutant Δ532 (terminal 16 residues removed) (human).

Regarding “Hsp60 C-terminal deletion mutant Δ522 (terminal 26 residues removed) (domain or fragment)”, in experiment [1], the stoichiometry N (usually the number of molecules, sites or subunits per partner or assembly) worked out at 14.

B1: human malate dehydrogenase (hMDH), acid-denatured (enzyme)
chain: AKVAVLGASGGIGQPLSLLLKNSPLVSRLTLYDIAHTPGVAADLSHIETKAAVKGYLGPEQLPDCLKGCDVVVIPAGVPRKPGMTRDDLFNTNATIVATLTAACAQHCPEAMICVIANPVNSTIPITAEVFKKHGVYNPNKIFGVTTLDIVRANTFVAELKGLDPARVNVPVIGGHAGKTIIPLISQCTPKVDFPQDQLTALTGRIQEAGTEVVKAKAGAGSATLSMAYAGARFVFSLVDAMNGKEGVVECSFVKSQETECTYFSTPLLLGKKGIEKNLGIGKVSSFEEKMISDAIPELKASIKKGEDFVKTLK
In turn, B1 returned a refolding of denatured hMDH (hMDH activity), loss against wild-type Hsp60 in experiment [2] of 27%.
